{"source": "patent US20150023971A1", "binders": {"B1": {"name": "recombinant his-S-tagged pro-domain of human BDNF (residues Ala1-Arg110), from pET-30 Xa/LIC, E. coli (protein, not shown: small tags and cut ends)", "chain": "APMKEANIRGQGGLAYPGVRTHGTLESVNGPKAGSGLTSLADTFEHVIEELLDEDQKVRPNEENNKDADLYTSRVMLSSQVPLEPPLLFLLEEYKNYLDAANMSMRVRR"}}, "key": {"[1]": {"biological_target": "T1, …", "T1 sequence (peptide)": "RIFRSSDFA", "assay": "SPOT length analysis, dot 29, anti-histidine detection"}, "[2]": {"biological_target": "T2, …", "T2 sequence (peptide)": "DFAKNFVQT", "assay": "SPOT length analysis, dot 35, anti-histidine detection"}, "[3]": {"biological_target": "T3, FAKN", "T3 sequence (peptide)": "FAKN", "assay": "SPOT length analysis, dot 86, HRP-S-protein detection"}, "[4]": {"biological_target": "T4, …", "T4 sequence (peptide)": "IFRSSDFAKNF", "assay": "SPOT length analysis, dot 17, anti-histidine detection"}, "[5]": {"biological_target": "T5, SDFAK", "T5 sequence (peptide)": "SDFAK", "assay": "SPOT length analysis, dot 72, HRP-S-protein detection"}, "[6]": {"biological_target": "T6, SDFAKNF", "T6 sequence (peptide)": "SDFAKNF", "assay": "SPOT length analysis, dot 51, anti-histidine detection"}, "[7]": {"biological_target": "T7, …", "T7 sequence (peptide)": "RSSDFAKNFV", "assay": "SPOT length analysis, dot 25, anti-histidine detection"}, "[8]": {"biological_target": "T8, AKNFVQTD", "T8 sequence (peptide)": "AKNFVQTD", "assay": "SPOT length analysis, dot 45, HRP-S-protein detection"}, "[9]": {"biological_target": "T9, …", "T9 sequence (peptide)": "IFRSSDFAKNFVQT", "assay": "SPOT length analysis, dot 5, anti-histidine detection"}, "[10]": {"biological_target": "T10, …", "T10 sequence (peptide)": "RIFRSSDFAKN", "assay": "SPOT length analysis, dot 16, HRP-S-protein detection"}, "[11]": {"biological_target": "T11, RSSD", "T11 sequence (peptide)": "RSSD", "assay": "SPOT length analysis, dot 82, anti-histidine detection"}, "[12]": {"biological_target": "T12, FRSSDF", "T12 sequence (peptide)": "FRSSDF", "assay": "SPOT length analysis, dot 58, anti-histidine detection"}, "[13]": {"biological_target": "T13, …", "T13 sequence (peptide)": "RSSDFAKNF", "assay": "SPOT length analysis, dot 32, anti-histidine detection"}, "[14]": {"biological_target": "T14, AKNFVQT", "T14 sequence (peptide)": "AKNFVQT", "assay": "SPOT length analysis, dot 54, anti-histidine detection"}, "[15]": {"biological_target": "T15, DFAKN", "T15 sequence (peptide)": "DFAKN", "assay": "SPOT length analysis, dot 73, HRP-S-protein detection"}, "[16]": {"biological_target": "T16, …", "T16 sequence (peptide)": "DFAKNFVQTD", "assay": "SPOT length analysis, dot 28, HRP-S-protein detection"}, "[17]": {"biological_target": "T17, KNFVQ", "T17 sequence (peptide)": "KNFVQ", "assay": "SPOT length analysis, dot 76, HRP-S-protein detection"}, "[18]": {"biological_target": "T18, RSSDFAKN", "T18 sequence (peptide)": "RSSDFAKN", "assay": "SPOT length analysis, dot 40, anti-histidine detection"}, "[19]": {"biological_target": "T19, NFVQT", "T19 sequence (peptide)": "NFVQT", "assay": "SPOT length analysis, dot 77, HRP-S-protein detection"}, "[20]": {"biological_target": "T20, …", "T20 sequence (peptide)": "FRSSDFAKNF", "assay": "SPOT length analysis, dot 24, HRP-S-protein detection"}, "[21]": {"biological_target": "T15, DFAKN", "assay": "SPOT length analysis, dot 73, anti-histidine detection"}, "[22]": {"biological_target": "T21, KNFVQTD", "T21 sequence (peptide)": "KNFVQTD", "assay": "SPOT length analysis, dot 55, HRP-S-protein detection"}, "[23]": {"biological_target": "T22, SDFA", "T22 sequence (peptide)": "SDFA", "assay": "SPOT length analysis, dot 84, HRP-S-protein detection"}, "[24]": {"biological_target": "T23, FRSSDFA", "T23 sequence (peptide)": "FRSSDFA", "assay": "SPOT length analysis, dot 48, anti-histidine detection"}, "[25]": {"biological_target": "T24, SDFAKN", "T24 sequence (peptide)": "SDFAKN", "assay": "SPOT length analysis, dot 61, anti-histidine detection"}, "[26]": {"biological_target": "T25, RSSDF", "T25 sequence (peptide)": "RSSDF", "assay": "SPOT length analysis, dot 70, anti-histidine detection"}, "[27]": {"biological_target": "T26, SSDFAKNF", "T26 sequence (peptide)": "SSDFAKNF", "assay": "SPOT length analysis, dot 41, anti-histidine detection"}, "[28]": {"biological_target": "T27, FAKNFV", "T27 sequence (peptide)": "FAKNFV", "assay": "SPOT length analysis, dot 63, HRP-S-protein detection"}, "[29]": {"biological_target": "T28, …", "T28 sequence (peptide)": "IFRSSDFAKNFVQ", "assay": "SPOT length analysis, dot 8, anti-histidine detection"}, "[30]": {"biological_target": "T29, IFRSS", "T29 sequence (peptide)": "IFRSS", "assay": "SPOT length analysis, dot 68, anti-histidine detection"}, "[31]": {"biological_target": "T30, sortilin peptide RIFRSSDF on SPOT membrane", "T30 sequence (peptide, C-terminus anchored to the cellulose membrane through a beta-alanine linker)": "RIFRSSDF", "assay": "SPOT length analysis, dot 37, HRP-S-protein detection"}, "[32]": {"biological_target": "T31, DFAKNFVQ", "T31 sequence (peptide)": "DFAKNFVQ", "assay": "SPOT length analysis, dot 43, anti-histidine detection"}, "[33]": {"biological_target": "T32, …", "T32 sequence (peptide)": "FRSSDFAKN", "assay": "SPOT length analysis, dot 31, HRP-S-protein detection"}, "[34]": {"biological_target": "T33, …", "T33 sequence (peptide)": "SSDFAKNFVQT", "assay": "SPOT length analysis, dot 20, HRP-S-protein detection"}, "[35]": {"biological_target": "T34, AKNF", "T34 sequence (peptide)": "AKNF", "assay": "SPOT length analysis, dot 87, HRP-S-protein detection"}, "[36]": {"biological_target": "T35, IFRSSDF", "T35 sequence (peptide)": "IFRSSDF", "assay": "SPOT length analysis, dot 47, HRP-S-protein detection"}, "[37]": {"biological_target": "T36, …", "T36 sequence (peptide)": "FRSSDFAKNFVQT", "assay": "SPOT length analysis, dot 9, anti-histidine detection"}, "[38]": {"biological_target": "T37, SSDFAKN", "T37 sequence (peptide)": "SSDFAKN", "assay": "SPOT length analysis, dot 50, HRP-S-protein detection"}, "[39]": {"biological_target": "T17, KNFVQ", "assay": "SPOT length analysis, dot 76, anti-histidine detection"}, "[40]": {"biological_target": "T9, …", "assay": "SPOT length analysis, dot 5, HRP-S-protein detection"}, "[41]": {"biological_target": "T38, FRSSD", "T38 sequence (peptide)": "FRSSD", "assay": "SPOT length analysis, dot 69, anti-histidine detection"}, "[42]": {"biological_target": "T39, IFRS", "T39 sequence (peptide)": "IFRS", "assay": "SPOT length analysis, dot 80, anti-histidine detection"}, "[43]": {"biological_target": "T40, …", "T40 sequence (peptide)": "RIFRSSDFAKNFVQT", "assay": "SPOT length analysis, dot 2, anti-histidine detection"}, "[44]": {"biological_target": "T41, RIFRS", "T41 sequence (peptide)": "RIFRS", "assay": "SPOT length analysis, dot 67, HRP-S-protein detection"}, "[45]": {"biological_target": "T42, SDFAKNFV", "T42 sequence (peptide)": "SDFAKNFV", "assay": "SPOT length analysis, dot 42, HRP-S-protein detection"}, "[46]": {"biological_target": "T43, RIFRSS", "T43 sequence (peptide)": "RIFRSS", "assay": "SPOT length analysis, dot 56, anti-histidine detection"}, "[47]": {"biological_target": "T44, …", "T44 sequence (peptide)": "RSSDFAKNFVQTD", "assay": "SPOT length analysis, dot 10, HRP-S-protein detection"}, "[48]": {"biological_target": "T43, RIFRSS", "assay": "SPOT length analysis, dot 56, HRP-S-protein detection"}, "[49]": {"biological_target": "T20, …", "assay": "SPOT length analysis, dot 24, anti-histidine detection"}}}
{"binder": "B1", "values": [{"measurement": "BLU His", "setting": "[1]", "result": 43400, "unit": "BLU"}, {"measurement": "BLU His", "setting": "[2]", "result": 19100, "unit": "BLU"}, {"measurement": "BLU Sprotein", "setting": "[3]", "result": 13700, "unit": "BLU"}, {"measurement": "BLU His", "setting": "[4]", "result": 40700, "unit": "BLU"}, {"measurement": "BLU Sprotein", "setting": "[5]", "result": 14800, "unit": "BLU"}, {"measurement": "BLU His", "setting": "[6]", "result": 17200, "unit": "BLU"}, {"measurement": "BLU His", "setting": "[7]", "result": 23000, "unit": "BLU"}, {"measurement": "BLU Sprotein", "setting": "[8]", "result": 15300, "unit": "BLU"}, {"measurement": "BLU His", "setting": "[9]", "result": 53400, "unit": "BLU"}, {"measurement": "BLU Sprotein", "setting": "[10]", "result": 63600, "unit": "BLU"}, {"measurement": "BLU His", "setting": "[11]", "result": 15000, "unit": "BLU"}, {"measurement": "BLU His", "setting": "[12]", "result": 17500, "unit": "BLU"}, {"measurement": "BLU His", "setting": "[13]", "result": 21100, "unit": "BLU"}, {"measurement": "BLU His", "setting": "[14]", "result": 17300, "unit": "BLU"}, {"measurement": "BLU Sprotein", "setting": "[15]", "result": 15600, "unit": "BLU"}, {"measurement": "BLU Sprotein", "setting": "[16]", "result": 19000, "unit": "BLU"}, {"measurement": "BLU Sprotein", "setting": "[17]", "result": 15700, "unit": "BLU"}, {"measurement": "BLU His", "setting": "[18]", "result": 18700, "unit": "BLU"}, {"measurement": "BLU Sprotein", "setting": "[19]", "result": 15600, "unit": "BLU"}, {"measurement": "BLU Sprotein", "setting": "[20]", "result": 70400, "unit": "BLU"}, {"measurement": "BLU His", "setting": "[21]", "result": 17800, "unit": "BLU"}, {"measurement": "BLU Sprotein", "setting": "[22]", "result": 16800, "unit": "BLU"}, {"measurement": "BLU Sprotein", "setting": "[23]", "result": 13300, "unit": "BLU"}, {"measurement": "BLU His", "setting": "[24]", "result": 16600, "unit": "BLU"}, {"measurement": "BLU His", "setting": "[25]", "result": 15100, "unit": "BLU"}, {"measurement": "BLU His", "setting": "[26]", "result": 16100, "unit": "BLU"}, {"measurement": "BLU His", "setting": "[27]", "result": 15500, "unit": "BLU"}, {"measurement": "BLU Sprotein", "setting": "[28]", "result": 29600, "unit": "BLU"}, {"measurement": "BLU His", "setting": "[29]", "result": 41600, "unit": "BLU"}, {"measurement": "BLU His", "setting": "[30]", "result": 25300, "unit": "BLU"}, {"measurement": "BLU Sprotein", "setting": "[31]", "result": 114000, "unit": "BLU"}, {"measurement": "BLU His", "setting": "[32]", "result": 15500, "unit": "BLU"}, {"measurement": "BLU Sprotein", "setting": "[33]", "result": 20300, "unit": "BLU"}, {"measurement": "BLU Sprotein", "setting": "[34]", "result": 18400, "unit": "BLU"}, {"measurement": "BLU Sprotein", "setting": "[35]", "result": 13700, "unit": "BLU"}, {"measurement": "BLU Sprotein", "setting": "[36]", "result": 27800, "unit": "BLU"}, {"measurement": "BLU His", "setting": "[37]", "result": 19700, "unit": "BLU"}, {"measurement": "BLU Sprotein", "setting": "[38]", "result": 15900, "unit": "BLU"}, {"measurement": "BLU His", "setting": "[39]", "result": 18200, "unit": "BLU"}, {"measurement": "BLU Sprotein", "setting": "[40]", "result": 190000, "unit": "BLU"}, {"measurement": "BLU His", "setting": "[41]", "result": 15600, "unit": "BLU"}, {"measurement": "BLU His", "setting": "[42]", "result": 51100, "unit": "BLU"}, {"measurement": "BLU His", "setting": "[43]", "result": 113000, "unit": "BLU"}, {"measurement": "BLU Sprotein", "setting": "[44]", "result": 137000, "unit": "BLU"}, {"measurement": "BLU Sprotein", "setting": "[45]", "result": 15500, "unit": "BLU"}, {"measurement": "BLU His", "setting": "[46]", "result": 122000, "unit": "BLU"}, {"measurement": "BLU Sprotein", "setting": "[47]", "result": 20700, "unit": "BLU"}, {"measurement": "BLU Sprotein", "setting": "[48]", "result": 94400, "unit": "BLU"}, {"measurement": "BLU His", "setting": "[49]", "result": 20100, "unit": "BLU"}]}
